Laboratory results from paper PMC9407945 (Science immunology, 2022).
Changes are numbered by the printed parent chain.

Key:
[1] = target: SARS-CoV-2 spike ectodomain (S-ecto), Wuhan-hu-1, 2P (SARS-CoV-2, Wuhan-hu-1, UniProt P0DTC2, 2P mutation at residues 986 and 987, biotinylated (EZ-link NHS-sulfo-LC-Biotin) for the BLI assay); test: BLI; settings: both partners purified
[2] = target: SARS-CoV-2 spike ectodomain (S-ecto), Wuhan-hu-1 strain, 2P (SARS-CoV-2, Wuhan-hu-1, UniProt P0DTC2, 2P mutation at residues 986 and 987 | 2P mutation at residues 986 and 987, biotin (NHS-sulfo-LC-Biotin, EZ-link biotinylation kit)); test: BLI; settings: both partners purified
[3] = target: T1, SARS-CoV-2 spike ectodomain (S-ecto), Wuhan-hu-1 strain, residues 1-1208 with 2P mutation (SARS-CoV-2, Wuhan-hu-1, UniProt P0DTC2, 2P mutation at residues 986 and 987); test: cell-based or functional assay
[4] = target: T1, SARS-CoV-2 spike ectodomain (S-ecto), …; test: BLI; settings: both partners purified

B1: humanized SW186 H1L1 (antibody, V domains shown)
VH: QVQLVQSGAEVKKPGSSVKVSCKASGVAFSSYWMNWVRQAPGQGLEWMGQIYPGDGDTNYNGKFKGRVTITADKSTSTAYMELSSLRSEDTAVYYCARGFIATVEETMDYWGQGTLVTVSS
VL: DIQMTQSPSSLSASVGDRVTITCRASQDISNYLNWYQQKPGKAPKLLIYYTSRLHSGVPSRFSGSGSGTDFTLTISSLQPEDFATYYCQQSHTLPWTFGGGTKLEIK
For B1, the Kd [1] was 10 nM.

B2: humanized SW186 H1L4 (antibody, V domains shown)
VH: B1 VH
VL: B1 VL with A43T, P44V, F71Y, Y87F
Work on B2 yielded a Kd [2] of 5.03 nM, a koff [2] of 0.000519 s⁻¹ and a kon [2] of 103000 M⁻¹ s⁻¹.

B3: humanized SW186 H3L1 (antibody, V domains shown)
VH: B1 VH with M48I, V68A, Y95F
VL: B1 VL
Binder B3 has a Kd [2] of 6.69 nM, a koff [2] of 0.00119 s⁻¹ and a kon [2] of 178000 M⁻¹ s⁻¹.

B4: humanized SW186 H2L1 (antibody, V domains shown)
VH: B1 VH with M48I, Y95F
VL: B1 VL
In the case of B4, the Kd [2] is reported as 18.1 nM, the koff [2] is reported as 0.00078 s⁻¹ and the kon [2] is reported as 43100 M⁻¹ s⁻¹.

B5: humanized SW186 H3L4 (antibody, V domains shown)
VH: B1 VH with M48I, V68A, Y95F
VL: B1 VL with A43T, P44V, F71Y, Y87F
For B5, the Kd [2] was 2.6 nM, the koff [2] was 0.000469 s⁻¹ and the kon [2] was 181000 M⁻¹ s⁻¹.

B6: humanized SW186 H4L1 (antibody, V domains shown)
VH: B1 VH with R38K, M48I, R67K, V68A, Y95F
VL: B1 VL
B6 gave a Kd [1] of 4.14 nM.

B7: humanized SW186 H2L2 (antibody, V domains shown)
VH: B1 VH with M48I, Y95F
VL: B1 VL with Y87F
For B7, the Kd [2] was 12.6 nM, the koff [2] was 0.00151 s⁻¹ and the kon [2] was 120000 M⁻¹ s⁻¹.

B8: humanized SW186 H3L2 (antibody, V domains shown)
VH: B1 VH with M48I, V68A, Y95F
VL: B1 VL with Y87F
With B8 the Kd [1] was 6.09 nM.

B9: humanized SW186 H3L2 (antibody, V domains shown)
VH: B1 VH with M48I, V68A, Y95F
VL: B1 VL with Y87F
B9 showed a Kd [2] of 6.09 nM, a koff [2] of 0.00122 s⁻¹ and a kon [2] of 201000 M⁻¹ s⁻¹.

B10: humanized SW186 H2L1 (antibody, V domains shown)
VH: B1 VH with M48I, Y95F
VL: B1 VL
Work on B10 yielded a Kd [1] of 18.1 nM.

B11: humanized SW186 H3L1 (antibody, V domains shown)
VH: B1 VH with M48I, V68A, Y95F
VL: B1 VL
Binder B11 has a Kd [1] of 6.69 nM.

B12: humanized SW186 H2L4 (antibody, V domains shown)
VH: B1 VH with M48I, Y95F
VL: B1 VL with A43T, P44V, F71Y, Y87F
For B12, the Kd [1] was 3.14 nM.

B13: humanized SW186 H4L1 (antibody, V domains shown)
VH: B1 VH with R38K, M48I, R67K, V68A, Y95F
VL: B1 VL
Binder B13 has a Kd [2] of 4.14 nM, a koff [2] of 0.00077 s⁻¹ and a kon [2] of 186000 M⁻¹ s⁻¹.

B14: humanized SW186 H1L4 (antibody, V domains shown)
VH: B1 VH
VL: B1 VL with A43T, P44V, F71Y, Y87F
B14 showed a Kd [1] of 5.03 nM.

B15: humanized SW186 H2L4 (antibody, V domains shown)
VH: B1 VH with M48I, Y95F
VL: B1 VL with A43T, P44V, F71Y, Y87F
With B15 the Kd [2] was 3.14 nM, the koff [2] was 0.000603 s⁻¹ and the kon [2] was 192000 M⁻¹ s⁻¹.

B16: humanized SW186 H4L2 (antibody, V domains shown)
VH: B1 VH with R38K, M48I, R67K, V68A, Y95F
VL: B1 VL with Y87F
B16 showed a Kd [2] of 5.86 nM, a koff [2] of 0.000953 s⁻¹ and a kon [2] of 163000 M⁻¹ s⁻¹.

B17: humanized SW186 H2L2 (antibody, V domains shown)
VH: B1 VH with M48I, Y95F
VL: B1 VL with Y87F
B17 was tested, and the Kd [1] was 12.6 nM.

B18: humanized SW186 H4L4 (antibody, V domains shown)
VH: B1 VH with R38K, M48I, R67K, V68A, Y95F
VL: B1 VL with A43T, P44V, F71Y, Y87F
Binder B18 has a Kd [1] of 1.57 nM.

B19: humanized SW186 H4L2 (antibody, V domains shown)
VH: B1 VH with R38K, M48I, R67K, V68A, Y95F
VL: B1 VL with Y87F
B19 was tested, and the Kd [1] was 5.86 nM.

B20: humanized SW186 H2L3 (antibody, V domains shown)
VH: B1 VH with M48I, Y95F
VL: B1 VL with F71Y, Y87F
With B20 the Kd [2] was 3.72 nM, the koff [2] was 0.000713 s⁻¹ and the kon [2] was 191000 M⁻¹ s⁻¹.

B21: humanized SW186 H4L4 (antibody, V domains shown)
VH: B1 VH with R38K, M48I, R67K, V68A, Y95F
VL: B1 VL with A43T, P44V, F71Y, Y87F
For B21, the Kd [2] was 1.57 nM, the koff [2] was 0.000338 s⁻¹ and the kon [2] was 216000 M⁻¹ s⁻¹.

B22: humanized SW186 H3L4 (antibody, V domains shown)
VH: B1 VH with M48I, V68A, Y95F
VL: B1 VL with A43T, P44V, F71Y, Y87F
B22 was tested, and the Kd [1] was 2.6 nM.

B23: humanized SW186 H1L2 (antibody, V domains shown)
VH: B1 VH
VL: B1 VL with Y87F
B23 gave a Kd [1] of 26.2 nM.

B24: humanized SW186 H3L3 (antibody, V domains shown)
VH: B1 VH with M48I, V68A, Y95F
VL: B1 VL with F71Y, Y87F
In the case of B24, the Kd [2] is reported as 5.82 nM, the koff [2] is reported as 0.000761 s⁻¹ and the kon [2] is reported as 131000 M⁻¹ s⁻¹.

B25: humanized SW186 H1L2 (antibody, V domains shown)
VH: B1 VH
VL: B1 VL with Y87F
B25 gave a Kd [2] of 26.2 nM, a koff [2] of 0.00126 s⁻¹ and a kon [2] of 48200 M⁻¹ s⁻¹.

B26: humanized SW186 H3L3 (antibody, V domains shown)
VH: B1 VH with M48I, V68A, Y95F
VL: B1 VL with F71Y, Y87F
Work on B26 yielded a Kd [1] of 5.82 nM.

B27: humanized SW186 H2L3 (antibody, V domains shown)
VH: B1 VH with M48I, Y95F
VL: B1 VL with F71Y, Y87F
Work on B27 yielded a Kd [1] of 3.72 nM.

B28: humanized SW186 H4L3 (antibody, V domains shown)
VH: B1 VH with R38K, M48I, R67K, V68A, Y95F
VL: B1 VL with F71Y, Y87F
With B28 the Kd [1] was 2.4 nM.

B29: humanized SW186 H1L3 (antibody, V domains shown)
VH: B1 VH
VL: B1 VL with F71Y, Y87F
B29 was tested, and the Kd [1] was 4.37 nM.

B30: humanized SW186 H4L3 (antibody, V domains shown)
VH: B1 VH with R38K, M48I, R67K, V68A, Y95F
VL: B1 VL with F71Y, Y87F
B30 was tested, and the Kd [2] was 2.4 nM, the koff [2] was 0.000424 s⁻¹ and the kon [2] was 177000 M⁻¹ s⁻¹.

B31: humanized SW186 H1L3 (antibody, V domains shown)
VH: B1 VH
VL: B1 VL with F71Y, Y87F
Work on B31 yielded a Kd [2] of 4.37 nM, a koff [2] of 0.000598 s⁻¹ and a kon [2] of 137000 M⁻¹ s⁻¹.

B32: SW186 monoclonal antibody (murine-human chimeric, human IgG1 backbone) (antibody, V domains shown)
VH: QVQLQQSGAELVKPGASVKISCKASGVAFSSYWMNWVKQRPGKGLEWIGQIYPGDGDTNYNGKFKGKATLTADKSSSTAYMQLSSLSSEDSAVYFCARGFIATVEETMDYWGQGTSVTVSS
VL: DIQMTQTTSSLSASLGDRVTISCRASQDISNYLNWYQQKPDGTVKLLIYYTSRLHSGVPSRFSGSGSGTDYSLTISNLEQEDIATYFCQQSHTLPWTFGGGTKLEIK
For B32, the “neutralisation of infectious mNeonGreen SARS-CoV-2, WA1 strain, IC50” value [3] was roughly 0.04 µg/mL.

B33: SW186 (murine variable regions, murine-human chimeric) (Fab, V domains shown)
VH: B32 VH
VL: B32 VL
B33 gave a Kd [2] of 1.09 nM, a koff [2] of 0.000128 s⁻¹ and a kon [2] of 117000 M⁻¹ s⁻¹.

B34: SW186 Fab (fragment antigen-binding region of SW186) (Fab, V domains shown)
VH: B32 VH
VL: B32 VL
Work on B34 yielded a Kd [4] of roughly 1 nM.

B35: SW186 Fab (Fab, V domains shown)
VH: B32 VH
VL: B32 VL
For B35, the Kd [1] was 1.09 nM.
